According to the supplement of paper PMC5998384:

Columns and labels:
[1] = system: HeLa Kyoto; assay: solubility in G1/S (NP-40 vs SDS abundance) (log2 ratio); higher = more soluble; conditions: cell cycle stage: G1/S
[2] = system: HeLa Kyoto; assay: solubility change mitosis vs G1/S (difference of NP-40 vs SDS log2 ratios) (log2 ratio difference); higher = more soluble in mitosis
[3] = system: HeLa Kyoto; assay: melting temperature (median over replicates), in situ; higher = more thermally stable
[4] = system: HeLa Kyoto; assay: thermal stability score vs G1/S (z-score of summed log2 fold changes over temperatures); higher = more thermally stable than in G1/S
[5] = cell cycle stage: early G1 (4.5 h after nocodazole release)
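For melting temperature (median over replicates), in situ in this document: HeLa Kyoto cells synchronized by double thymidine or nocodazole block, proteins quantified by TMT10plex mass spectrometry, three independent biological replicates.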
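For solubility change mitosis vs G1/S (difference of NP-40 vs SDS log2 ratios) in this document: synchronized HeLa Kyoto cells (double thymidine block for G1/S, nocodazole release for mitosis), protein amounts in NP-40 versus SDS lysates quantified by mass spectrometry, three biological replicates.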
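For solubility in G1/S (NP-40 vs SDS abundance) in this document: HeLa Kyoto cells arrested at G1/S by double thymidine block, proteins quantified by TMT10plex mass spectrometry in mild NP-40 versus SDS extracts, three biological replicates.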
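For thermal stability score vs G1/S (z-score of summed log2 fold changes over temperatures) in this document: synchronized HeLa Kyoto cells, proteins quantified by TMT10plex mass spectrometry, three biological replicates, mitosis taken 0.5 h after nocodazole release, G1/S directly after double thymidine block.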

Row | Substance | solubility in G1/S (log2) [1] | solubility change mitosis (log2) [2] | melting temperature ([3]; cell cycle stage: G1/S) | melting temperature ([3]; cell cycle stage: mitosis) | thermal stability score [4, 5] | thermal stability score ([4]; cell cycle stage: mitosis)
1 | MVVMARLSRPERPDLVFEEEDLPYEEEIMRNQFSVKCWLRYIEFKQGAPKPRLNQLYERALKLLPCSYKLWYRYLKARRAQVKHRCVTDPAYEDVNNCHERAFVFMHKMPRLWLDYCQFLMDQGRVTHTRRTFDRALRALPITQHSRIWPLYLRFLRSHPLPETAVRGYRRFLKLSPESAEEYIEYLKSSDRLDEAAQRLATVVNDERFVSKAGKSNYQLWHELCDLISQNPDKVQSLNVDAIIRGGLTRFTDQLGKLWCSLADYYIRSGHFEKARDVYEEAIRTVMTVRDFTQVFDSYAQFEESMIAAKMETASELGREEEDDVDLELRLARFEQLISRRPLLLNSVLLRQNPHHVHEWHKRVALHQGRPREIINTYTEAVQTVDPFKATGKPHTLWVAFAKFYEDNGQLDDARVILEKATKVNFKQVDDLASVWCQCGELELRHENYDEALRLLRKATALPARRAEYFDGSEPVQNRVYKSLKVWSMLADLEESLGTFQSTKAVYDRILDLRIATPQIVINYAMFLEEHKYFEESFKAYERGISLFKWPNVSDIWSTYLTKFIARYGGRKLERARDLFEQALDGCPPKYAKTLYLLYAQLEEEWGLARHAMAVYERATRAVEPAQQYDMFNIYIKRAAEIYGVTHTRGIYQKAIEVLSDEHAREMCLRFADMECKLGEIDRARAIYSFCSQICDPRTTGAFWQTWKDFEVRHGNEDTIKEMLRIRRSVQATYNTQVNFMASQMLKVSGSATGTVSDLAPGQSGMDDMKLLEQRAEQLAAEAERDQPLRAQSKILFVRSDASREELAELAQQVNPEEIQLGEDEDEDEMDLEPNEVRLEQQSVPAAVFGSLKED [XAB2] | -0.31 | 0.0385 | 47.4 °C | 48.4 °C | 2.02 | 4.49
2 | MAAAPPLSKAEYLKRYLSGADAGVDRGSESGRKRRKKRPKPGGAGGKGMRIVDDDVSWTAISTTKLEKEEEEDDGDLPVVAEFVDERPEEVKQMEAFRSSAKWKLLGGHNEDLPSNRHFRHDTPDSSPRRVRHGTPDPSPRKDRHDTPDPSPRRARHDTPDPSPLRGARHDSDTSPPRRIRHDSSDTSPPRRARHDSPDPSPPRRPQHNSSGASPRRVRHDSPDPSPPRRARHGSSDISSPRRVHNNSPDTSRRTLGSSDTQQLRRARHDSPDLAPNVTYSLPRTKSGKAPERASSKTSPHWKESGASHLSFPKNSKYEYDPDISPPRKKQAKSHFGDKKQLDSKGDCQKATDSDLSSPRHKQSPGHQDSDSDLSPPRNRPRHRSSDSDLSPPRRRQRTKSSDSDLSPPRRSQPPGKKAAHMYSGAKTGLVLTDIQREQQELKEQDQETMAFEAEFQYAETVFRDKSGRKRNLKLERLEQRRKAEKDSERDELYAQWGKGLAQSRQQQQNVEDAMKEMQKPLARYIDDEDLDRMLREQEREGDPMANFIKKNKAKENKNKKVRPRYSGPAPPPNRFNIWPGYRWDGVDRSNGFEQKRFARLASKKAVEELAYKWSVEDM [BUD13] | -0.884 | 0.878 | 52.9 °C | 53 °C | 0.0865 | -0.687
3 | MRPLTEEETRVMFEKIAKYIGENLQLLVDRPDGTYCFRLHNDRVYYVSEKIMKLAANISGDKLVSLGTCFGKFTKTHKFRLHVTALDYLAPYAKYKVWIKPGAEQSFLYGNHVLKSGLGRITENTSQYQGVVVYSMADIPLGFGVAAKSTQDCRKVDPMAIVVFHQADIGEYVRHEETLT [NIP7] | -1.97 | 0.622 | 55.5 °C | 53.8 °C | -2 | -2.49
4 | MDNYADLSDTELTTLLRRYNIPHGPVVGSTRRLYEKKIFEYETQRRRLSPPSSSAASSYSFSDLNSTRGDADMYDLPKKEDALLYQSKGYNDDYYEESYFTTRTYGEPESAGPSRAVRQSVTSFPDADAFHHQVHDDDLLSSSEEECKDRERPMYGRDSAYQSITHYRPVSASRSSLDLSYYPTSSSTSFMSSSSSSSSWLTRRAIRPENRAPGAGLGQDRQVPLWGQLLLFLVFVIVLFFIYHFMQAEEGNPF [EMD] | -0.273 | 0.383 | 52.4 °C | 51.7 °C | -0.609 | -0.468
5 | MSLHGKRKEIYKYEAPWTVYAMNWSVRPDKRFRLALGSFVEEYNNKVQLVGLDEESSEFICRNTFDHPYPTTKLMWIPDTKGVYPDLLATSGDYLRVWRVGETETRLECLLNNNKNSDFCAPLTSFDWNEVDPYLLGTSSIDTTCTIWGLETGQVLGRVNLVSGHVKTQLIAHDKEVYDIAFSRAGGGRDMFASVGADGSVRMFDLRHLEHSTIIYEDPQHHPLLRLCWNKQDPNYLATMAMDGMEVVILDVRVPCTPVARLNNHRACVNGIAWAPHSSCHICTAADDHQALIWDIQQMPRAIEDPILAYTAEGEINNVQWASTQPDWIAICYNNCLEILRV [DCAF7] | -0.0563 | -0.147 | 52.2 °C | 52.5 °C | 0.282 | -1.1
6 | PPP2R5A | 0.0389 | -0.192 | 50.8 °C | 50.5 °C | 0.702 | 1.43
7 | MEKSRMNLPKGPDTLCFDKDEFMKEDFDVDHFVSDCRKRVQLEELRDDLELYYKLLKTAMVELINKDYADFVNLSTNLVGMDKALNQLSVPLGQLREEVLSLRSSVSEGIRAVDERMSKQEDIRKKKMCVLRLIQVIRSVEKIEKILNSQSSKETSALEASSPLLTGQILERIATEFNQLQFHAVQSKGMPLLDKVRPRIAGITAMLQQSLEGLLLEGLQTSDVDIIRHCLRTYATIDKTRDAEALVGQVLVKPYIDEVIIEQFVESHPNGLQVMYNKLLEFVPHHCRLLREVTGGAISSEKGNTVPGYDFLVNSVWPQIVQGLEEKLPSLFNPGNPDAFHEKYTISMDFVRRLERQCGSQASVKRLRAHPAYHSFNKKWNLPVYFQIRFREIAGSLEAALTDVLEDAPAESPYCLLASHRTWSSLRRCWSDEMFLPLLVHRLWRLTLQILARYSVFVNELSLRPISNESPKEIKKPLVTGSKEPSITQGNTEDQGSGPSETKPVVSISRTQLVYVVADLDKLQEQLPELLEIIKPKLEMIGFKNFSSISAALEDSQSSFSACVPSLSSKIIQDLSDSCFGFLKSALEVPRLYRRTNKEVPTTASSYVDSALKPLFQLQSGHKDKLKQAIIQQWLEGTLSESTHKYYETVSDVLNSVKKMEESLKRLKQARKTTPANPVGPSGGMSDDDKIRLQLALDVEYLGEQIQKLGLQASDIKSFSALAELVAAAKDQATAEQP [COG2] | 0.0645 | -0.0298 | 50.2 °C | 49.4 °C | 0.195 | 0.834
8 | MEKTLETVPLERKKREKEQFRKLFIGGLSFETTEESLRNYYEQWGKLTDCVVMRDPASKRSRGFGFVTFSSMAEVDAAMAARPHSIDGRVVEPKRAVAREESGKPGAHVTVKKLFVGGIKEDTEEHHLRDYFEEYGKIDTIEIITDRQSGKKRGFGFVTFDDHDPVDKIVLQKYHTINGHNAEVRKALSRQEMQEVQSSRSGRGGNFGFGDSRGGGGNFGPGPGSNFRGGSDGYGSGRGFGDGYNGYGGGPGGGNFGGSPGYGGGRGGYGGGGPGYGNQGGGYGGGYDNYGGGNYGSGNYNDFGNYNQQPSNYGPMKSGNFGGSRNMGGPYGGGNYGPGGSGGSGGYGGRSRY [HNRNPA2B1] | -0.087 | 0.321 | 48.1 °C | 49 °C | 5.29 | 6.68
9 | MAAWKSWTALRLCATVVVLDMVVCKGFVEDLDESFKENRNDDIWLVDFYAPWCGHCKKLEPIWNEVGLEMKSIGSPVKVGKMDATSYSSIASEFGVRGYPTIKLLKGDLAYNYRGPRTKDDIIEFAHRVSGALIRPLPSQQMFEHMQKRHRVFFVYVGGESPLKEKYIDAASELIVYTYFFSASEEVVPEYVTLKEMPAVLVFKDETYFVYDEYEDGDLSSWINRERFQNYLAMDGFLLYELGDTGKLVALAVIDEKNTSVEHTRLKSIIQEVARDYRDLFHRDFQFGHMDGNDYINTLLMDELTVPTVVVLNTSNQQYFLLDRQIKNVEDMVQFINNILDGTVEAQGGDSILQRLKRIVFDAKSTIVSIFKSSPLMGCFLFGLPLGVISIMCYGIYTADTDGGYIEERYEVSKSENENQEQIEESKEQQEPSSGGSVVPTVQEPKDVLEKKKD [TMX3] | 0.2 | -0.0543 | 54.5 °C | 54.3 °C | 0.827 | 3.44
10 | MIPVTELRYFADTQPAYRILKPWWDVFTDYISIVMLMIAVFGGTLQVTQDKMICLPCKWVTKDSCNDSFRGWAAPGPEPTYPNSTILPTPDTGPTGIKYDLDRHQYNYVDAVCYENRLHWFAKYFPYLVLLHTLIFLACSNFWFKFPRTSSKLEHFVSILLKCFDSPWTTRALSETVVEESDPKPAFSKMNGSMDKKSSTVSEDVEATVPMLQRTKSRIEQGIVDRSETGVLDKKEGEQAKALFEKVKKFRTHVEEGDIVYRLYMRQTIIKVIKFILIICYTVYYVHNIKFDVDCTVDIESLTGYRTYRCAHPLATLFKILASFYISLVIFYGLICMYTLWWMLRRSLKKYSFESIREESSYSDIPDVKNDFAFMLHLIDQYDPLYSKRFAVFLSEVSENKLRQLNLNNEWTLDKLRQRLTKNAQDKLELHLFMLSGIPDTVFDLVELEVLKLELIPDVTIPPSIAQLTGLKELWLYHTAAKIEAPALAFLRENLRALHIKFTDIKEIPLWIYSLKTLEELHLTGNLSAENNRYIVIDGLRELKRLKVLRLKSNLSKLPQVVTDVGVHLQKLSINNEGTKLIVLNSLKKMANLTELELIRCDLERIPHSIFSLHNLQEIDLKDNNLKTIEEIISFQHLHRLTCLKLWYNHIAYIPIQIGNLTNLERLYLNRNKIEKIPTQLFYCRKLRYLDLSHNNLTFLPADIGLLQNLQNLAITANRIETLPPELFQCRKLRALHLGNNVLQSLPSRVGELTNLTQIELRGNRLECLPVELGECPLLKRSGLVVEEDLFNTLPPEVKERLWRADKEQA [LRRC8A] | -0.294 | 0.00706 | 54 °C | 52.9 °C | -0.642 | -0.308
11 | MAQVEKRGGLLRKSSASKKPLKEKVVLMYDEIFMTEDPSKCSPRFWEELFLMKVNLEYLEGKLESLDGEELMKIKDNINCLFQHCIQALGEEHPIRVVNALQTLCALIRGVHQKNKSTSGFDIINMLMGFDKAELCMKNLMESLDSLLCAEGSESLKSLCLKLLLCLVTVTDNISQNTILEYVMINSIFEAILQILSHPPSRREHGYDAVVLLALLVNYRKYESVNPYIVKLSIVDDEATLNGMGLVIAQALSEYNRQYKDKEEEHQSGFFSALTNMVGSMFIADAHEKISVQTNEAILLALYEAVHLNRNFITVLAQSHPEMGLVTTPVSPAPTTPVTPLGTTPPSSDVISSVELPLDADVQTSNLLITFLKYSSIVMQDTKDEHRLHSGKLCLIILTCIAEDQYANAFLHDDNMNFRVNLHRMPMRHRKKAADKNLPCRPLVCAVLDLMVEFIVTHMMKEFPMDLYIRCIQVVHKLLCYQKKCRVRLHYTWRELWSALINLLKFLMSNETVLLAKHNIFTLALMIVNLFNMFITYGDTFLPTPSSYDELYYEIIRMHQSFDNLYSMVLRLSTNAGQWKEAASKVTHALVNIRAIINHFNPKIESYAAVNHISQLSEEQVLEVVRANYDTLTLKLQDGLDQYERYSEQHKEAAFFKELVRSISTNVRRNLAFHTLSQEVLLKEFSTIS [C10ORF76] | -0.113 | -0.122 | 54.1 °C | 55.3 °C | -0.1 | -1.32
12 | MAGSVGLALCGQTLVVRGGSRFLATSIASSDDDSLFIYDCSAAEKKSQENKGEDAPLDQGSGAILASTFSKSGSYFALTDDSKRLILFRTKPWQCLSVRTVARRCTALTFIASEEKVLVADKSGDVYSFSVLEPHGCGRLELGHLSMLLDVAVSPDDRFILTADRDEKIRVSWAAAPHSIESFCLGHTEFVSRISVVPTQPGLLLSSSGDGTLRLWEYRSGRQLHCCHLASLQELVDPQAPQKFAASRIAFWCQENCVALLCDGTPVVYIFQLDARRQQLVYRQQLAFQHQVWDVAFEETQGLWVLQDCQEAPLVLYRPVGDQWQSVPESTVLKKVSGVLRGNWAMLEGSAGADASFSSLYKATFDNVTSYLKKKEERLQQQLEKKQRRRSPPPGPDGHAKKMRPGEATLSC [WDR4] | -0.256 | -0.396 | 52.8 °C | 53.9 °C | 0.0653 | -0.0979
